Data taken from patent US20180161335.

T1: RAB11A, N-terminal 6x His-tag, purified from E. coli, preloaded with BODIPY FL GDP, P62491
T1 chain: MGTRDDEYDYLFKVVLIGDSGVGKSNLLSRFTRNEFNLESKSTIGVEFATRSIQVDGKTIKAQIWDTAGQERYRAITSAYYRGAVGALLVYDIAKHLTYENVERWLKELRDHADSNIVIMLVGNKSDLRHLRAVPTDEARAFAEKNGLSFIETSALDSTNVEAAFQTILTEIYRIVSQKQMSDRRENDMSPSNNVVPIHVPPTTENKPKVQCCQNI

T2: RAB5A, N-terminal 6x His-tag, purified from E. coli, preloaded with BODIPY FL GDP, P20339
T2 chain: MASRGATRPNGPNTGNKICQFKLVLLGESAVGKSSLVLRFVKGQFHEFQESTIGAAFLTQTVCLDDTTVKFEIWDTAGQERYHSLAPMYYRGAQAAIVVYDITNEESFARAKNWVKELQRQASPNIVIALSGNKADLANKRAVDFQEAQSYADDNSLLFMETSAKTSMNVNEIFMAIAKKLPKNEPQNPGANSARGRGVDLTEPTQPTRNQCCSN

B1: C9ORF72 isoform B, 2x HA-tagged, in HEK cell lysate (protein)
chain: MSTLCPPPSPAVAKTEIALSGKSPLLAATFAYWDNILGPRVRHIWAPKTEQVLLSDGEITFLANHTLNGEILRNAESGAIDVKFFVLSEKGVIIVSLIFDGNWNGDRSTYGLSIILPQTELSFYLPLHRVCVDRLTHIIRKGRIWMHKERQENVQKIILEGTERMEDQGQSIIPMLTGEVIPVMELLSSMKSHSVPEEIDIADTVLNDDDIGDSCHEGFLLK
B2: DENND2D, 2x HA-tagged, in HEK cell lysate (protein)
chain: MEGQVVGRVFRLFQRRLLQLRAGPPQDNSGEALKEPERAQEHSLPNFAGGQHFFEYLLVVSLKKKRSEDDYEPIITYQFPKRENLLRGQQEEEERLLKAIPLFCFPDGNEWASLTEYPRETFSFVLTNVDGSRKIGYCRRLLPAGPGPRLPKVYCIISCIGCFGLFSKILDEVEKRHQISMAVIYPFMQGLREAAFPAPGKTVTLKSFIPDSGTEFISLTRPLDSHLEHVDFSSLLHCLSFEQILQIFASAVLERKIIFLAEGLSTLSQCIHAAAALLYPFSWAHTYIPVVPESLLATVCCPTPFMVGVQMRFQQEVMDSPMEEVLLVNLCEGTFLMSVGDEKDILPPKLQDDILDSLGQGINELKTAEQINEHVSGPFVQFFVKIVGHYASYIKREANGQGHFQERSFCKALTSKTNRRFVKKFVKTQLFSLFIQEAEKSKNPPAGYFQQKILEYEEQKKQKKPREKTVK
B3: RABEX5, 2x HA-tagged, in HEK cell lysate (protein)
chain: MSLKSERRGIHVDQSDLLCKKGCGYYGNPAWQGFCSKCWREEYHKARQKQIQEDWELAERLQREEEEAFASSQSSQGAQSLTFSKFEEKKTNEKTRKVTTVKKFFSASSRVGSKKEIQEAKAPSPSINRQTSIETDRVSKEFIEFLKTFHKTGQEIYKQTKLFLEGMHYKRDLSIEEQSECAQDFYHNVAERMQTRGKVPPERVEKIMDQIEKYIMTRLYKYVFCPETTDDEKKDLAIQKRIRALRWVTPQMLCVPVNEDIPEVSDMVVKAITDIIEMDSKRVPRDKLACITKCSKHIFNAIKITKNEPASADDFLPTLIYIVLKGNPPRLQSNIQYITRFCNPSRLMTGEDGYYFTNLCCAVAFIEKLDAQSLNLSQEDFDRYMSGQTSPRKQEAESWSPDACLGVKQMYKNLDLLSQLNERQERIMNEAKKLEKDLIDWTDGIAREVQDIVEKYPLEIKPPNQPLAAIDSENVENDKLPPPLQPQVYAG

Legend:
[1] = molecular target: ARF3, purified from E. coli, preloaded with BODIPY FL GDP, P61204
[2] = molecular target: T1, RAB11A, N-terminal 6x His-tag, purified …
[3] = molecular target: T2, RAB5A, N-terminal 6x His-tag, purified …

Sequence of ARF3, purified from E. coli, preloaded with BODIPY FL GDP, P61204 (P61204 whole entry): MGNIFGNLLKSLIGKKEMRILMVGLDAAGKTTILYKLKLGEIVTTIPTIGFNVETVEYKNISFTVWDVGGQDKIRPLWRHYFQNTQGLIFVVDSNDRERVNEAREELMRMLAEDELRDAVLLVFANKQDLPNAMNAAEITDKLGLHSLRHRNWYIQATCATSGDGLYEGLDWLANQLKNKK

| Protein | guanine exchange activity (BODIPY-GDP fluorescence) (the other GTPases tested) | guanine exchange activity (BODIPY-GDP fluorescence) [1] | guanine exchange activity (BODIPY-GDP fluorescence) [2] | guanine exchange activity (BODIPY-GDP fluorescence) [3] |
| --- | --- | --- | --- | --- |
| B1 | Significant activity was not observed using both C9ORF72 isoforms on the other GTPases tested | C9ORF72 isoforms A and B stimulated guanine exchange on ARF3 |  |  |
| B2 |  |  | neither RABEX-5, DENN2D, or DsRed displayed activity on RAB11A | did not display guanine exchange activity on RAB5A |
| B3 |  |  | neither RABEX-5, DENN2D, or DsRed displayed activity on RAB11A |  |
